assay: soluble on expression in E. coli; label from the status in PepcDB or PDB records

Sequence | soluble on expression in E. coli
MSLDLFDRKAAADTLKEAPLAERMRPRTLAEYVGQEHLLGPGKLLRQLIETDQLTSLIFWGPPGSGKTTLARIIAGATKSHFIFFSAILSGIKEIREIVKEADDIRKFHGKRTILFVDEIHRFNKSQQDAFLPYVERGVFTIIGATTENPSFEVIAPLLSRCKVLVLNPLTEEEITGILRQALADKERGLGALDLAIEDDALTFMAEQAGGDARVALNTLETASRLTSNGVVSLDTAREAVQKKPLLYDKGGEEHYNVISAFIKSMRGSDPDGALYWLARMIEAGEDPIFILRRMVILASEDIGNADPRALQVAVTALQGFQLVGMPEGRIIIGQAVTYLATAPKSNASYVGIDAALAEVRKSGALPVPLHIRNAPTRLMKDLGYGTGYRYAHDYAEGYVAQDYLPDQIKGRKYYDPTGHGYEKSIKERMEWLKGKKEGHHHHHH | soluble
MSLDLNKYKDRIITLAKPYLNREFDFADVKLTLISGLGVEINGLRIADNPEFGSEDFLSLQSLRIKVALFPLLKKKIQIKKLIMDEPVVRLVRNSNGVFNFSDMASDAEEDEKPQAKDEKRKEKKSGSEKKPDSEHNIFLAGLMVSQFTLHSGQIHFLDNFVPDAPVTMVFDSLNIELKNVSLYKPIRIYASAGLQGTTEQNLLIKGMVGPVGDNMDLVGLAMDIHVSVQNVFLHKFVPYIPDGLMLSPLEGILYMTANIKGSVHSGLDLESVIQGEKLVMSIKDSDEKIQNVNITLKEKIKYDDRKGDIGFQQLDLALNDNNVSLTGTIENIKTDPQWDVTLMAKMNALDEALALYPVFKEALPQDFRFTGPLNMEITSSGSKDAMQISGHTDMTRAEILYGEVFKKQKNIPFQISLKANKIADIIQLEAFAVNLQNASLNSSGSIEDMVNPRFDLVSTANEFSLKGWDAIVPLLKEYEPEGSVSIKNYMKGNFDDAFVNLHVSSPKLLFKFPASSDKKEDENTKQRKDVAESIRFELLAKKLADNITADGGLEMGNGTILDINFEEAKGKYSFQDDILKIQSFQMRTFEGDISLTGNYDSKSMQWDASPIINAVRIDGVVDAFTQYRGMMKGVFSGSFDMGGSLGKNDKMVTNANGSFRLLQGEIENVNLMETIIDSLLGIKEVYKYAGEKKDVLEKYDVTRFDSLDGEFSLLNDMLDLKKCYLENIYTPDVPGSDAKLKGDINFDTGKLDLSGKVILSSEHSEKLTKKAKPLKALLNEKGNIVLPVTVTGTMSNPKPLLDTSYVLNAMMNYYGKEELEKGLDKLKGKLGLEKLGLEKLWQKDEGHHHHHH | not soluble
MSLDLRKSKELTGIEAHINDNKKEESNVEYFEKLRSALLDGVNKGRSLLKHLPVTRIEGQSFRVDIIKFEDGVRVVKQEYKPIPLLKKKFYVGIRELNDGTYDVSIATKAGELLVKDEESLVIREILSTEGIKKMKLSSWDNPEEALNDLMNALQEASNASAGPFGLIINPKRYAKLLKIYEKSGKMLVEVLKEIFRGGIIVTLNIDENKVIIFANTPAVLDVVVGQDVTLQELGPEGDDVAFLVSEAIGIRIKNPEAIVVLEEGHHHHHH | soluble
MSLDNTEQEKFETYDLDVETVYCRPIIKFPLLLIHAYRVYLALNDHNDIEPRLHSDRLLEIFDPLINGDEQSVKLFIETLWQVRYQFDRWVVKWVERDDATDAQLGLTYQSRSKSNDTYYINRTQKELTDIVLLQSVRNFTGERSAQYWLTPFLSGLIRSSIKQDSVALELLENIDNKMSLSVDTQKEASFALAEGIEPNCQSWQSQSTYFAKSLGTSFEHYWFQKLEYLIWKKMKASESSLPSEELNKFKKYRITSKNSVEHVHPQNDEYNSRLDCETLNSFGNLVLLSPGENSSYSNQDVDKKRIDFERKSHFDALKLREIFGVKGQGLWGKQQIDNHLEDMMAVFAQHYKEGHHHHHH | not soluble
MSLDQYGNIRAMGIHSLLYCERLFYLEEVEGILVADDRVYAGRTLHEELEPNEDFSGRIESFHYTSEKLEVSGKVDRIQKRDGDWIPYEHKRGRARIGTNGPEAWESDQCQVTVYALLLEEATGRNISEGKIRYHGSKDLVKIEIDEELRSKALKTIDRAKELSTSTNRPPVAQNENLCKNCSLAPVCLPEETRVITENEYEPIRLFPEKREGHHHHHH | soluble
MSLDRLIHWYNMAVYPSIFATMLPVDPRRALGAFLRSHRERLPPPPLALGRRRTPGWRREELAEACGVSLTWITWLEQGRDVSASPHALARLAEALHLAPAERGYLFELAGRRDPVSPVASDDGIPPAVLALPGHMNVPAYLLDRTWTARAWNSAASRLFTGWLDGDHDRNLLRFIFLSPAAPRLIADWDQRAHRVVAEFRADFSRRLRDPALQALVESLAAQSQAFRTLWHEQAVLDREGGERSFLNPARRFHQSTLILAANADIKLVSLVPMDGEEFEGHHHHHH | soluble
MSLDRNLYEDTFVVFDVETTGLSAVYDTIIELAAVKIKGGEIVDRFESFANPHHALSQTTIDLTGITDDMVNDAPEVADVLKDFHTWMGNDILVAHNASFDMGFLNQGFQRIDYEKASNPVVDTLELARFLLPELRNHRLNTLCKHLDIELTQHHRAIYDAEATGYLLWKLVQRLVEKEISNHEGHHHHHH | soluble
MSLDSRPAVLEISASIIDISENALEQLGVDWRLHNSRFDLQTGNGTNTMLNNPGSLDSVATTAGAAAAIAATPAGGVLSAVIGGGSRYLMARISALQQTDQARITANPKVATLDNTEAVMDNRQNFYVPVAGYQSADLYAISAGVSLRVLPMVVMDGGTVRIRMNVHIEDGQITSQQVGNLPITSQSEIDTQALINEGDSLLIAGYSVEQQSKSVDAVPGLSKIPLVGALFRTDQTTGKRFQRMFLVTPRVITPEGHHHHHH | soluble
MSLDTMWFRNIDNFINEINRFALLGTVTNKNGWLINNGIYYAGRLGKLHSTPTKGQQVVTDAMRIYPYLGEQYFVAAEQITTNYGGIDANGKTVNLDQIREEGKKKYLPKTYTFDDGAIVFKAGDKVSEEKIKRLYWAAKEVRSQFYRTVGSDKPLEKWTCEGHHHHHH | not soluble
MSLDTSRRRRLARRSIAASFRLFLTVAKGLGVLDYRIDGAEILHQERGCLVVANHPTLIDYVLLASVMPETDCLVKSALLKNPFLGGVVRATDYLINSEAETLLPRCQQRLAQGDTILIFPEGTRTKPGEKMTLQRGAANIAVRCASDLRIVTIGCSEHLLDKQSKWYDVPPDRPFFTVAVHGRVEINKFYDATSQEPALAARQLNRHLLLQLQQGCLPLSGINNASALSGNEGHHHHHH | not soluble
MSLDTTALPHTTFEGIPLDGKNKQDIQKIVQQKVEELNKKSLNYVFENNTQTYTWKDLGVEYKEKDIVANIFKEQQGNIIDRYNMRKKAIHGELKREYKLKPQLNSTAYEAFMEDKYNETLKNPVNAELNISGTTVNISESQNGEKIDKEQLAILTKQAIAANTQNIKLPIASIKPERSTEDIQNMGIKQVIAEYSTPMTGRNGSQSFNVNKSANTLSGAIVAPDETFSFNGRVGITDAAHGYKSAAVYLQGKVVQSAGGGVCQVSSTLYGAVLRADLGVVARSNHSMPVHYLPLGQDAAVADYGPDLKFKNNTGHYIYIQAFSDGNRITTRIFGTPTGKNVEVSSKVISNTGNKITAVTYKKVTKDGQVISNGQISKSVYKKEGHHHHHH | not soluble
MSLDVSDDADRLQTLLYSSYSADVVRQLERPLLDDGVPLMRMAASAVARVTLSLLDDEDLDVEDARVTVLAGAGDNGGDGLYAGAELAREGAQVTAVAVGRSLHEDAFREFVRAGGRVLVLDPAADIPGCTSGFSAGEAGERLQAAVECARGAHVVLDAMTGIGVAGALRGVAGTLASSLGMDGVLPDKPALPNNDPSADLPLVVAVDAPSGVGVDDGSLPGPYIPADVTVTFGAMKPCAMVPPASYACGRITLVDFGFDVDDAVPFAEMTDGDFVADSVRLPSLADGKYSRGVVGLVTGSARYPGAAVLSARAAACANVGMVRYLGPQRAQDMILAVLPEAVLGKGRVQSWVVGSGVPAEGDVASGDDMQRATIAALLDHYALEDGDGSRNERAEGMPPIVVDAGALDLLPCHVVPQVVITPHAGELAALLNRLDADMADVVSRQWVEARPLRAALRAHELTGATVLLKGAVTIVVGADGDGNTRIILSGRAPAWMATAGSGDVLAGVLGALLAQQDDMLSDDPALVPEVAAAAAYMHGLAGAMASGSEQRGWHRPHLYGHAGKTPASAIGHPIVAGDVVAAVPRAFGELLREGHHHHHH | soluble
MSLDVSLKLKGIDGALEDNVKAYLSSIPEKDYSTSLRFQARLDQSITEALNALGYYHAKISYSISEGNDELIVNIHKGLPVKIKVMDVVISGEAKEDEEFTNLIAKSPLKVGRILNQGEYDSLKSGIRNLALQRGYFNGDFKLNKLEVIPELNEANVRLHYDSGIRYHFGPVEITGSQIWENRVESMRPFEIGEPYLVSDVGEYNQNLSNTDWFSSVFVEPDLSKLEDGRELPIKVSLAPAAKNQIETGIGYSTDTGVRGTLKWKKPWVSARGHSFNTALSLSKPEQTITAGYKIPLDDVLREYYQLQFGLKHLDNRDTESLESNLAVERHWLTDGGWHKTVYVRHLYENFSQGLQDDGVQFVLPGATFSRTRVRGGSMPMWGDKQSVTVEYGDPALLSETRVLRLLGRSSWIRGIGENHRGLFRLEGGANITEEFEKLSPSLRFFAGGDNNIRGYGYESISPVDESGALTGAKYILSSTLEYQYRVYGNWWAATFYDIGDAFNDTPEWKSGAGVGIRWASPVGPVSFDFAWGLDEKPNNEFRIHFSLGPELEGHHHHHH | not soluble
MSLDVSVSATGHDNVTARHDSTLELTTDDFLTPAGDCILGIDADCSPAAFSDAFVAACQDAAATITLVLDTPQHRDEITGSGHPDLTFTNDRSMVGRTSTYVDDRTVFVDADKAAADVDREMVAALADGAPLTATLRVDEGHHHHHH | soluble
MSLEDYCTPGAFELERLFWKGSPQYTHVNEVWPKLYIGDEATALDRYRLQKAGFTHVLNAAHGRWNVDTGPDYYRDMDIQYHGVEADDLPTFDLSVFFYPAAAFIDRALSDDHSRKRDVRVRNLCRKAGPLGLLVAEGKGKILVHCVMGRSRSATLVLAYLMIHKDMTLVDAIQQVAKNRCVLPNRGFLKQLRELDKQLVQQRRRSEGHHHHHH | soluble
MSLEGDRGQDDVLRILVATDTHLGYKADDSERGGDSFETFQEILEIGRNLKVDFLLHGGDLFDENRPSRATLYRTFCLLRKFCFGDGAVSFEVLEGAAESRGRGEGFRFGLNYLDENINVCMPIFAMHGNHDDPGEQSHLSPLDLLEAAHLINYFGRCDATDEVTIKPILIKKGQTKVAIYGVGWIRDARLHRAFNNGKVRFLVPSASAGEDSVDDWFNIMVVHQNMYKGAFGGQPAKNCIHEQMLPDFLDLAIWGHEHDCHLDLRDAPQGTFRVLQPGSSIATSLVAGEALPKHVFLLEIRGENYRVTPQRLRTVRPLLFEDVALSDLLHSRPPLAPALSGVRTPQSRVSNSGAGRNLQTAQPAEDRDVWQLLTDAVEELLSRFAREEGHHHHHH | soluble
MSLEGEVEKTQAKGSIILATTTSTSDSGLLDYLLPEFTKDTGIEAKVVAVGTGQALQMGKDGEADVLLVHSKAAEEEFVAAGDGLERKDVMYNDFILVGPANDPLKLKQELPNDIVGALKKISEQKFKFISRGDDSGTHKKELALWTEVGITPEGDYYVSAGRGMGDVLKMADEMQAYTIADRGTYLSMKADLGLDIIVEKDTNLFNQYGVIPVNPDKNENINAEGAKAFEEWILSEKAQSLIGEYGKEKYGAPLFTPNAAKEGHHHHHH | soluble
MSLEGFIEGSSLTVLNRNFYFNRDNRDSTAPTYNSGKGNTNGYSEAWAHAIISKFNSGFTQGTVGFGVDAFAMIGLKLDTGDGRNGGRSSFDVLPVDNKGEARDEYTKVGGAAKVRLFDTIVKVGDVFPSTPVVASGDSRLLPESFRGVTVENTSIQGLTLQGGRLHAMSQPVSSNLNDNFVTFYGGPVNSPWIGYGGGDYSINDNWTVSVYASQLKDVWNQYYAGTSVVYPLSDDLALIGGFNYYKAVDEGKKRLGEFDNNIWSAKVGVRYGAHTLALSHQRNNGDDDFDYLRQSDSIFVDNSIQYSDFNSPKERSWMLRYDLNFTSYGIPGLTFMTRYARGSGADYSNANQFYMRTDDNGNPLDNQKRWERDVEVKYVVQTGPAKDLSFRLRQATTRATAFESDLDETRVIIEYPLSILEGHHHHHH | soluble

Source: the DeepSol protein solubility set
